Data set [1] concerns the target T1, L1-EN D145A/Y226K (LINE-1 ORF2p endonuclease domain) (human, UniProt O00370 1-238, D145A;Y226K). Briefly: X-ray crystallography; no Mg2+; 0.1 M MES pH 6.0, 0.2 M NaCl, 30% Jeffamine ED-2003; 2.8 A; Co-crystallization: protein 16-24 mg/ml in 300 mM NaCl, 15 mM HEPES pH 7.5, 2% glycerol, 1 mM TCEP, DNA:protein 1.2:1; crystallization pH 6.0 (dna17) or 4.5 (dna14); temperature not stated. As to conditions: protein: recombinant; tags: N-terminal 6xHis-SUMO, cleaved with Ulp1; single-nucleotide T/A overhangs at the ends.

The target of data set [2] is T1, L1-EN D145A/Y226K (LINE-1 ORF2p …). The data set is described as follows: X-ray crystallography; no Mg2+; 0.1 M sodium acetate pH 4.5, 0.2 M ammonium acetate, 15% PEG 4000; 2.8 A; Co-crystallization: protein 16-24 mg/ml in 300 mM NaCl, 15 mM HEPES pH 7.5, 2% glycerol, 1 mM TCEP, DNA:protein 1.2:1; crystallization pH 6.0 (dna17) or 4.5 (dna14); temperature not stated. The settings on record: protein: recombinant; tags: N-terminal 6xHis-SUMO, cleaved with Ulp1; single-nucleotide T/A overhangs at the ends.

T1 sequence (O00370 1-238 D145A/Y226K): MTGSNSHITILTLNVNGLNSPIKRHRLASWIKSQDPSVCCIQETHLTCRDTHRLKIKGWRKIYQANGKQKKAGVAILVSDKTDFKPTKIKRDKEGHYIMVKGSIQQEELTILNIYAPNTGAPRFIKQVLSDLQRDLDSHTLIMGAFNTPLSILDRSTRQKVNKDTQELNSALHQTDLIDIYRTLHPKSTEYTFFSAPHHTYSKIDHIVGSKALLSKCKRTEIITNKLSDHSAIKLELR

B1: dna17 (dsDNA)
DNA 1: GCTCCTTTTTAAGGGCTA
DNA 2: AGCCCTTAAAAAGGAGCT
For the molecule B1, the binding result in data set [1] is reported as “binds”.

B2: dna14 (dsDNA)
DNA 1: GCTCCTTTTTAAGGA
DNA 2: CCTTAAAAAGGAGCT
Turning to B2, the binding result in data set [2] was “binds”.

These data come from article PMC8565326, “Structural dissection of sequence recognition and catalytic mechanism of human LINE-1 endonuclease”.
